According to patent US20230140384A1 (Bristol-Myers Squibb, published 2023):

Experiments:
hCD64 [1] = molecular target: T1, hCD64 (human, UniProt P12314 16-288); assay: SPR % Rmax, compared with 12D6-IgG1f-P238K
T1 construct: also called FcγRI
Description: (§1) The binding of human FcγRs to antibodies was studied by surface plasmon resonance using a Biacore 8K system (GE Healthcare, USA). For these studies, protein A was immobilized on flow cells 1-4 of the CM5 sensor chip using standard ethyl (dimethylaminopropyl) carbodiimide (EDC)/N-hydroxysuccinimide […] chemistry, with ethanolamine blocking, in a running buffer of 10 mM HEPES pH 7.4, 150 mM NaCl, 3 mM EDTA, 0.05% surfactant p20, to a density of ˜3000 RU. Purified 12D6-24-IgG1f antibody (10 μg/mL) or expression supernatants of all other antibodies (diluted to ˜10 μg/ml) were captured on the protein A surface to a density of ˜1000-1200 RU, and the binding of FcγR analytes was tested in running buffer consisting of 10 mM NaPO₄, 130 mM NaCl, 0.05% p20, buffer (PBS-T) pH 7.1 at 25° C., using 120 s association time and 120 s dissociation time at a flow rate of 20 μL/min. The data were analyzed using Biacore 8K evaluation software by determining the measured binding response as a percentage of theoretical maximum binding response for each antibody (% Rmax), based on the level of captured antibody, assuming 100% fractional activity and only taking into account protein mass without glycosylation.

hCD64 [2] = molecular target: T1, hCD64; assay: SPR, antibody captured on protein A, FcγR as analyte
Description: as §1

T1 sequence (P12314 16-288 limits assumed): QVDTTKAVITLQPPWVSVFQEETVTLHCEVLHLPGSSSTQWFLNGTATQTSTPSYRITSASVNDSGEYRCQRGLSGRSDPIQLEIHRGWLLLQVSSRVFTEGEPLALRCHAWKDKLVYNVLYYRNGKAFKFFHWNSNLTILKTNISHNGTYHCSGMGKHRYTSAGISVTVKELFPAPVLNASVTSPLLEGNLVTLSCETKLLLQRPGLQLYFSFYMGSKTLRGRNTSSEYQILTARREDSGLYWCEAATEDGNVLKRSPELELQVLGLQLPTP

Row | Binder | fold reduction of binding against P238K alone (hCD64 [1]) [fold] | binding result (hCD64 [2])
1 | 12D6-IgG1f-L235E-P238K (antibody, Tested as expression supernatant; copies: 2 + 2) heavy: not shown light: DIVMTQTPLSLPVTPGEPASISCRSSQSLVHSNANTYLHWYLQKPGQSPQLLIYKLTNRFFGVPDRFSGSGSGTDFTLKISRVEAEDVGVYYCSQSIHVPWTFGGGTKVEIKRTVAAPSVFIFPPSDEQLKSGTASVVCLLNNFYPREAKVQWKVDNALQSGNSQESVTEQDSKDSTYSLSSTLTLSKADYEKHKVYACEVTHQGLSSPVTKSFNRGEC | ~10 | –
2 | 12D6-IgG1.3f-P238K (antibody, Tested as expression supernatant; IgG1.3f carries L234A, L235E and G237A; copies: 2 + 2) heavy: QVQLVQSGAEVKKPGASVKVSCKASGYTFTGYNMNWVRQAPGQGLEWMGNIDPYYGNTNYNQKFKGRVTMTTDTSTSTAYMELRSLRSDDTAVYYCARLGLQLYALDYWGQGTTVTVSSASTKGPSVFPLAPSSKSTSGGTAALGCLVKDYFPEPVTVSWNSGALTSGVHTFPAVLQSSGLYSLSSVVTVPSSSLGTQTYICNVNHKPSNTKVDKRVEPKSCDKTHTCPPCPAPEAEGAKSVFLFPPKPKDTLMISRTPEVTCVVVDVSHEDPEVKFNWYVDGVEVHNAKTKPREEQYNSTYRVVSVLTVLHQDWLNGKEYKCKVSNKALPAPIEKTISKAKGQPREPQVYTLPPSREEMTKNQVSLTCLVKGFYPSDIAVEWESNGQPENNYKTTPPVLDSDGSFFLYSKLTVDKSRWQQGNVFSCSVMHEALHNHYTQKSLSLSPGK light: DIVMTQTPLSLPVTPGEPASISCRSSQSLVHSNANTYLHWYLQKPGQSPQLLIYKLTNRFFGVPDRFSGSGSGTDFTLKISRVEAEDVGVYYCSQSIHVPWTFGGGTKVEIKRTVAAPSVFIFPPSDEQLKSGTASVVCLLNNFYPREAKVQWKVDNALQSGNSQESVTEQDSKDSTYSLSSTLTLSKADYEKHKVYACEVTHQGLSSPVTKSFNRGEC | – | no binding (tested: 1 µM)
3 | 12D6-IgG2.3G1.3f-P238K (antibody, copies: 2 + 2) heavy: QVQLVQSGAEVKKPGASVKVSCKASGYTFTGYNMNWVRQAPGQGLEWMGNIDPYYGNTNYNQKFKGRVTMTTDTSTSTAYMELRSLRSDDTAVYYCARLGLQLYALDYWGQGTTVTVSSASTKGPSVFPLAPCSRSTSESTAALGCLVKDYFPEPVTVSWNSGALTSGVHTFPAVLQSSGLYSLSSVVTVPSSNFGTQTYTCNVDHKPSNTKVDKTVERKSCVECPPCPAPEAEGAKSVFLFPPKPKDTLMISRTPEVTCVVVDVSHEDPEVKFNWYVDGVEVHNAKTKPREEQYNSTYRVVSVLTVLHQDWLNGKEYKCKVSNKALPAPIEKTISKAKGQPREPQVYTLPPSREEMTKNQVSLTCLVKGFYPSDIAVEWESNGQPENNYKTTPPVLDSDGSFFLYSKLTVDKSRWQQGNVFSCSVMHEALHNHYTQKSLSLSPGK light: DIVMTQTPLSLPVTPGEPASISCRSSQSLVHSNANTYLHWYLQKPGQSPQLLIYKLTNRFFGVPDRFSGSGSGTDFTLKISRVEAEDVGVYYCSQSIHVPWTFGGGTKVEIKRTVAAPSVFIFPPSDEQLKSGTASVVCLLNNFYPREAKVQWKVDNALQSGNSQESVTEQDSKDSTYSLSSTLTLSKADYEKHKVYACEVTHQGLSSPVTKSFNRGEC | – | no binding (tested: 1 µM)
4 | 12D6-IgG2.5G1.3f-P238K (antibody, copies: 2 + 2) heavy: QVQLVQSGAEVKKPGASVKVSCKASGYTFTGYNMNWVRQAPGQGLEWMGNIDPYYGNTNYNQKFKGRVTMTTDTSTSTAYMELRSLRSDDTAVYYCARLGLQLYALDYWGQGTTVTVSSASTKGPSVFPLAPSSRSTSESTAALGCLVKDYFPEPVTVSWNSGALTSGVHTFPAVLQSSGLYSLSSVVTVPSSNFGTQTYTCNVDHKPSNTKVDKTVERKCCVECPPCPAPEAEGAKSVFLFPPKPKDTLMISRTPEVTCVVVDVSHEDPEVKFNWYVDGVEVHNAKTKPREEQYNSTYRVVSVLTVLHQDWLNGKEYKCKVSNKALPAPIEKTISKAKGQPREPQVYTLPPSREEMTKNQVSLTCLVKGFYPSDIAVEWESNGQPENNYKTTPPVLDSDGSFFLYSKLTVDKSRWQQGNVFSCSVMHEALHNHYTQKSLSLSPGK light: DIVMTQTPLSLPVTPGEPASISCRSSQSLVHSNANTYLHWYLQKPGQSPQLLIYKLTNRFFGVPDRFSGSGSGTDFTLKISRVEAEDVGVYYCSQSIHVPWTFGGGTKVEIKRTVAAPSVFIFPPSDEQLKSGTASVVCLLNNFYPREAKVQWKVDNALQSGNSQESVTEQDSKDSTYSLSSTLTLSKADYEKHKVYACEVTHQGLSSPVTKSFNRGEC | – | no binding (tested: 1 µM)
